# Substitutions are numbered along the chain they refer to. Names and notes keep the numbering of the source.
# T1: CXCR1 (UniProt P25024 1-350, limits assumed)
# T1 construct: whole, on cells; DiscoveRx PathHunter cell line; any reporter tag on the receptor is not described; also called CXCR1 receptor; CXCR1-U2OS
# T1 sequence (looked up): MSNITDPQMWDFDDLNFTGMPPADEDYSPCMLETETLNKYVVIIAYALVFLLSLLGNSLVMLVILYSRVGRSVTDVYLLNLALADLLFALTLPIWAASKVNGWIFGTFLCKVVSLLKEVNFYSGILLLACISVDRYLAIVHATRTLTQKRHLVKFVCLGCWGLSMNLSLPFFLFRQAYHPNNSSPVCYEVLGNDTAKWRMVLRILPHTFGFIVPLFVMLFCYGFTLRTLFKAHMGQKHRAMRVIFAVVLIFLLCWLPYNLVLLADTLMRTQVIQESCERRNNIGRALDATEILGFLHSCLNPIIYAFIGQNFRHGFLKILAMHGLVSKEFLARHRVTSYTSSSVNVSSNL
# B1: VH4-34+CDR3-IL8_CDR2-Cow_Q5RQ6E / VL1-51 S2A, T5N, P8S, A12G, A13S, P14L, K46R, L47T, D51G, N52D, N53T, K54S, P56A IgG (antibody)
# VH: QVQLREWGAGLLKPSETLSLTCAVYGGSFSGYYWSWIRQPPGKGLEWLGSIDTGGNTGYNPSLKSRVTISVDTSKNQFSLKLSSVTAADTAVYYCTSVHQETKKYQSPRSAKELRCQCIKTYSKPFHPKFIKELRVIESGPHCANTEIIVKLSDGRELCLDPKENWVQRVVEKFLKRAENSGSGSYTYNYEWHVDVWGQGLLVTVSS
# light: QAVLNQPSSVSGSLGQKVTISCSGSSSNIGNNYVSWYQQLPGTAPRTLIYGDTSRASGIPDRFSGSKSGTSATLGITGLQTGDEADYYCASAEDSSSNAVFGSGTTLTVLGQPKAAPSVTLFPPSSEELQANKATLVCLISDFYPGAVTVAWKADSSPVKAGVETTTPSKQSNNKYAASSYLSLTPEQWKSHRSYSCQVTHEGSTVEKTVAPTECS
# B2: VH4-34+CDR3-IL8_CDR1-G31DY32K_Q5RQ6E / VL1-51 S2A, T5N, P8S, A12G, A13S, P14L, D51G, N52D, N53T IgG (antibody)
# VH: B1 VH with G31D, Y32K, L48I, S50E, D52N, T53H, G54S, N56S, G58N
# light: B1 light with R46K, T47L, S54K, A56P
# B3: VH4-34+CDR3-IL8_CDR1-G31DY32K_CDR2-E50S_Q5RQ6E / VL1-51 I29V, N32G, K46R, L47T, D51G, N52D, N53T IgG (antibody)
# VH: B1 VH with G31D, Y32K, L48I, D52N, T53H, G54S, N56S, G58N
# light: B1 light with A2S, N5T, S8P, G12A, S13A, L14P, I29V, N32G, S54K, A56P
# B4: VH4-34+CDR3-IL8_CDR1-Cow_CDR2-Cow_Q5RQ6E / VL1-51 I29V, N32G, K46R, L47T, D51G, N52D, N53T IgG (antibody)
# VH: B1 VH with A23T, V24A, Y25S, G27F, F29L, G31D, Y32K, Y33A, W34V, S35G
# light: B1 light with A2S, N5T, S8P, G12A, S13A, L14P, I29V, N32G, S54K, A56P
# B5: VH4-34+CDR3-IL8_Q5RQ6E / VL1-51 S2A, T5N, P8S, A12G, A13S, P14L, K46R, L47T, D51G, N52D, N53T IgG (antibody)
# VH: B1 VH with L48I, S50E, D52N, T53H, G54S, N56S, G58N
# light: B1 light with S54K, A56P
# notes: nt HC 490, LC 486
# B6: VH4-34+CDR3-IL8_CDR1-Cow_CDR2-E50S_Q5RQ6E / VL1-51 S2A, T5N, P8S, A12G, A13S, P14L, K46R, L47T, D51G, N52D, N53T, K54S, P56A IgG (antibody)
# VH: QVQLREWGAGLLKPSETLSLTCTASGFSLSDKAVGWIRQPPGKGLEWIGSINHSGSTNYNPSLKSRVTISVDTSKNQFSLKLSSVTAADTAVYYCTSVHQETKKYQSPRSAKELRCQCIKTYSKPFHPKFIKELRVIESGPHCANTEIIVKLSDGRELCLDPKENWVQRVVEKFLKRAENSGSGSYTYNYEWHVDVWGQGLLVTVSS
# light: B1 light
# B7: VH4-34+CDR3-IL8_CDR1-Cow_CDR2-Cow_Q5RQ6E / VL1-51 S2A, T5N, P8S, A12G, A13S, P14L, D51G, N52D, N53T IgG (antibody)
# VH: B6 VH with I48L, N52D, H53T, S54G, S56N, N58G
# light: B1 light with R46K, T47L, S54K, A56P
# B8: VH4-34+CDR3-IL8_Q5RQ6E / VL1-51 S2A, T5N, P8S, A12G, A13S, P14L, K46R, L47T, D51G, N52D, N53T, K54S, P56A IgG (antibody)
# VH: B1 VH with L48I, S50E, D52N, T53H, G54S, N56S, G58N
# light: B1 light
# B9: VH4-34+CDR3-IL8_CDR1-G31DY32K_Q5RQ6E / VL1-51 S2A, T5N, P8S, A12G, A13S, P14L, K46R, L47T, D51G, N52D, N53T, K54S, P56A IgG (antibody)
# VH: B1 VH with G31D, Y32K, L48I, S50E, D52N, T53H, G54S, N56S, G58N
# light: B1 light
# B10: VH4-34+CDR3-IL8_CDR1-Cow_Q5RQ6E / VL1-51 I29V, N32G, K46R, L47T, D51G, N52D, N53T IgG (antibody)
# VH: B6 VH with S50E
# light: B1 light with A2S, N5T, S8P, G12A, S13A, L14P, I29V, N32G, S54K, A56P
# B11: VH4-34+CDR3-IL8_CDR1-Cow_CDR2-E50S_Q5RQ6E / VL1-51 I29V, N32G, K46R, L47T, D51G, N52D, N53T, K54S, P56A IgG (antibody)
# VH: B6 VH
# light: B1 light with A2S, N5T, S8P, G12A, S13A, L14P, I29V, N32G
# B12: VH4-34+CDR3-IL8_CDR1-Cow_CDR2-Cow_Q5RQ6E / VL1-51 S2A, T5N, P8S, A12G, A13S, P14L, K46R, L47T, D51G, N52D, N53T, K54S, P56A IgG (antibody)
# VH: B6 VH with I48L, N52D, H53T, S54G, S56N, N58G
# light: B1 light
# B13: VH4-34+CDR3-IL8_CDR1-G31DY32K_CDR2-E50S_Q5RQ6E / VL1-51 S2A, T5N, P8S, A12G, A13S, P14L, K46R, L47T, D51G, N52D, N53T, K54S, P56A IgG (antibody)
# VH: B1 VH with G31D, Y32K, L48I, D52N, T53H, G54S, N56S, G58N
# light: B1 light
# B14: VH4-34+CDR3-IL8_CDR1-Cow_CDR2-E50S_Q5RQ6E / VL1-51 S2A, T5N, P8S, A12G, A13S, P14L, D51G, N52D, N53T IgG (antibody)
# VH: B6 VH
# light: B1 light with R46K, T47L, S54K, A56P
# B15: VH4-34+CDR3-IL8_CDR1-Cow_Q5RQ6E / VL1-51 S2A, T5N, P8S, A12G, A13S, P14L, K46R, L47T, D51G, N52D, N53T, K54S, P56A IgG (antibody)
# VH: B6 VH with S50E
# light: B1 light
# B16: VH4-34+CDR3-IL8_CDR1-Cow_Q5RQ6E / VL1-51 S2A, T5N, P8S, A12G, A13S, P14L, K46R, L47T, D51G, N52D, N53T IgG (antibody)
# VH: B6 VH with S50E
# light: B1 light with S54K, A56P
# notes: also called BID 43; VH4-34 MutF IL-8 5R6E CD1cow
# B17: VH4-34+CDR3-IL8_CDR1-Cow_Q5RQ6E / VL1-51 I29V, N32G, K46R, L47T, D51G, N52D, N53T, K54S, P56A IgG (antibody)
# VH: B6 VH with S50E
# light: B1 light with A2S, N5T, S8P, G12A, S13A, L14P, I29V, N32G
# B18: VH4-34+CDR3-IL8_CDR1-Cow_CDR2-E50S_Q5RQ6E / VL1-51 I29V, N32G, K46R, L47T, D51G, N52D, N53T IgG (antibody)
# VH: B6 VH
# light: B1 light with A2S, N5T, S8P, G12A, S13A, L14P, I29V, N32G, S54K, A56P
# B19: VH4-34+CDR3-IL8_CDR1-G31DY32K_CDR2-E50S_Q5RQ6E / VL1-51 S2A, T5N, P8S, A12G, A13S, P14L, D51G, N52D, N53T IgG (antibody)
# VH: B1 VH with G31D, Y32K, L48I, D52N, T53H, G54S, N56S, G58N
# light: B1 light with R46K, T47L, S54K, A56P
# B20: VH4-34+CDR3-IL8_CDR2-E50S_Q5RQ6E / VL1-51 S2A, T5N, P8S, A12G, A13S, P14L, K46R, L47T, D51G, N52D, N53T, K54S, P56A IgG (antibody)
# VH: B1 VH with L48I, D52N, T53H, G54S, N56S, G58N
# light: B1 light
# B21: VH4-34+CDR3-IL8_CDR1 Cow_CDR2 E50S / VL1-51 S2A, T5N, P8S, A12G, A13S, P14L, D51G, N52D, N53T IgG (antibody)
# VH: QVQLQQWGAGLLKPSETLSLTCTASGFSLSDKAVGWIRQPPGKGLEWIGSINHSGSTNYNPSLKSRVTISVDTSKNQFSLKLSSVTAADTAVYYCTSVHQETKKYQSPRSAKELRCQCIKTYSKPFHPKFIKELRVIESGPHCANTEIIVKLSDGRELCLDPKENWVQRVVEKFLKRAENSGSGSYTYNYEWHVDVWGQGLLVTVSSAS
# light: B1 light with R46K, T47L, S54K, A56P
# B22: VH4-34+CDR3-IL8 / VL1-51 S2A, T5N, P8S, A12G, A13S, P14L, D51G, N52D, N53T IgG (antibody)
# VH: QVQLQQWGAGLLKPSETLSLTCAVYGGSFSGYYWSWIRQPPGKGLEWIGEINHSGSTNYNPSLKSRVTISVDTSKNQFSLKLSSVTAADTAVYYCTSVHQETKKYQSPRSAKELRCQCIKTYSKPFHPKFIKELRVIESGPHCANTEIIVKLSDGRELCLDPKENWVQRVVEKFLKRAENSGSGSYTYNYEWHVDVWGQGLLVTVSSAS
# light: B1 light with R46K, T47L, S54K, A56P
# notes: nt HC 430, LC 444
# B23: VH4-34+CDR3-IL8_CDR1 Cow / VL1-51 S2A, T5N, P8S, A12G, A13S, P14L, D51G, N52D, N53T IgG (antibody)
# VH: B21 VH with S50E
# light: B1 light with R46K, T47L, S54K, A56P
# Molecular target: T1, CXCR1
# Assay: flow cytometry, supernatant at 5 nM IgG
row,Binder,Specific Binding (CXCR1-Cell median AFU / Parental Cell median AFU)
1,B1,1
2,B2,2
3,B3,1
4,B4,1
5,B5,10
6,B6,2
7,B7,4
8,B8,3
9,B9,2
10,B10,1
11,B11,2
12,B12,2
13,B13,3
14,B14,2
15,B15,3
16,B16,10
17,B17,2
18,B18,1
19,B19,1
20,B20,1

# Molecular target: T1, CXCR1
# Assay: flow cytometry, supernatant at 5 nM IgG
# Remark: another data set of the same source
row,Binder,Specific Binding (CXCR1-Cell median AFU / Parental Cell median AFU)
1,B21,6
2,B22,3
3,B23,4

# Source: patent publication US20230287598A1 (TAURUS BIOSCIENCES, published 2023)
